± gives the standard deviation of the averaged measurements.
What follows are sequences tested on Saccharomyces cerevisiae (assay: protein stability index of tFT-peptide fusion (C-terminal peptide) (PSI (0-1 scale)); higher = more stable (slower turnover)). Conditions: genetic background: das1 deletion; temperature: 30 C.
Description: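 MPS profiling in S. cerevisiae of the tFT-X12 degron library: putative degron peptides plus stable controls, 12 aa, fused to the C-terminus of a sfGFP-mCherry timer. Cells are FACS-sorted into 8 mCherry/sfGFP bins and deep-sequenced. PSI runs from 0 (unstable) to 1 (stable). Backgrounds are wild type, das1Δ and doa10Δ at 30 °C, and wild type, das1Δ, cdc34-1 and cdc53-1 at 37 °C; 2-3 technical replicates each.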
GRWVLALCLVCG gave a protein stability index of 0.202 ± 0.026. In the case of GSLLNLSLRWLV, the protein stability index is reported as 0.6638 ± 0.0066. For GTMGWYSISRRL, the protein stability index was 0.681 ± 0.013. In the case of GVCRFFCLVFCS, the protein stability index is reported as 0.507 ± 0.049. For GVCSFFVCVFFV, the protein stability index was 0.233 ± 0.036. In the case of GVFLVWWVGFWV, the protein stability index is reported as 0.25 ± 0.035. GVLFHIVLHFMV gave a protein stability index of 0.255 ± 0.028. In the case of GVMSICRWMISV, the protein stability index is reported as 0.325 ± 0.042. In the case of GVQFRRPLIPIY, the protein stability index is reported as 0.358 ± 0.03. In the case of GVVCVLGFALFV, the protein stability index is reported as 0.293 ± 0.046. Work on GWGVFFVMRIQV yielded a protein stability index of 0.225 ± 0.02. Work on GWLVGLGLVFFT yielded a protein stability index of 0.513 ± 0.033. GWRRRIWLCRLQ showed a protein stability index of 0.7 ± 0.013. GYLFICSWCEGF showed a protein stability index of 0.363 ± 0.023. Sequence HDRLRGVFWRVP has a protein stability index of 0.655 ± 0.038. For HGVRLHTVWVGG, the protein stability index was 0.413 ± 0.011. HLKKKLKIRLIN showed a protein stability index of 0.645 ± 0.011. Work on HSRALLPYLSYH yielded a protein stability index of 0.651 ± 0.021. HTYSFRLLFIFL was tested, and the protein stability index was 0.328 ± 0.035. HVPPVFQASLSP was tested, and the protein stability index was 0.662 ± 0.014. ICFFQGVVVLFR showed a protein stability index of 0.312 ± 0.026. With IFFVLVFFPGFF the protein stability index was 0.366 ± 0.035. Sequence IFHWLYLLIALI has a protein stability index of 0.436 ± 0.027. Sequence IFLKFGLLRSLL has a protein stability index of 0.744 ± 0.012. IGMVSELLLFYP showed a protein stability index of 0.671 ± 0.022. Work on IGSFYVLSFICQ yielded a protein stability index of 0.454 ± 0.021. IHTFSVVVVVAA showed a protein stability index of 0.128 ± 0.029. IIFACFYGVFLM gave a protein stability index of 0.141 ± 0.019. ILDRRPRTFALV was tested, and the protein stability index was 0.633 ± 0.02. IMGGLRHRIEVY gave a protein stability index of 0.273 ± 0.028. In the case of IRSLRPFLLPLF, the protein stability index is reported as 0.643 ± 0.022. In the case of IRVFSFLLFGCF, the protein stability index is reported as 0.373 ± 0.033. ISFQFFVCLCAR was tested, and the protein stability index was 0.159 ± 0.022. With ISHLQCFFVVML the protein stability index was 0.355 ± 0.026. For ISLSSLYVVMYV, the protein stability index was 0.227 ± 0.026. IVFFVLFRFWRF was tested, and the protein stability index was 0.326 ± 0.038. Sequence IVRLGRWLGLSC has a protein stability index of 0.613 ± 0.055. For IYEAFLVFCLCG, the protein stability index was 0.326 ± 0.028. With KKKEIIKIIKIN the protein stability index was 0.697 ± 0.065. KKKKKKKIKIMS showed a protein stability index of 0.636 ± 0.024. KKKNIYKVMKLE was tested, and the protein stability index was 0.646 ± 0.035. KLCVGLVLSFVC gave a protein stability index of 0.341 ± 0.028. For KWGRFQQVMVIN, the protein stability index was 0.5 ± 0.029. KYQVIILQTRKI was tested, and the protein stability index was 0.634 ± 0.063. LACGIDGYYWRH showed a protein stability index of 0.667 ± 0.015. Work on LAFMYFVCPRLA yielded a protein stability index of 0.56 ± 0.02. LAVVLVWVPGRW showed a protein stability index of 0.335 ± 0.032. LCFFLAFSFVFF was tested, and the protein stability index was 0.231 ± 0.025. Sequence LCFGMVELMWIY has a protein stability index of 0.388 ± 0.046. LCFRLVSYLCIN was tested, and the protein stability index was 0.591 ± 0.048. In the case of LCGIFTFRLSLL, the protein stability index is reported as 0.668 ± 0.028. LCIYNFGWWFCV gave a protein stability index of 0.561 ± 0.036. LCLLCWIPCSFR gave a protein stability index of 0.451 ± 0.029. LCLLFLSFFFVC gave a protein stability index of 0.374 ± 0.037. Work on LCVVVICCLMAR yielded a protein stability index of 0.123 ± 0.036. With LDLSSVFILYFN the protein stability index was 0.518 ± 0.0058. For LEGRFLACRGIC, the protein stability index was 0.598 ± 0.018. LEVHGSCIFICV gave a protein stability index of 0.359 ± 0.039. In the case of LFAIFLVVLLFR, the protein stability index is reported as 0.195 ± 0.03. In the case of LFFPLPGILSFF, the protein stability index is reported as 0.631 ± 0.022. LFFWVLTVMFVW gave a protein stability index of 0.224 ± 0.013. In the case of LFGRVLSGILSV, the protein stability index is reported as 0.567 ± 0.019. For LFLLSHYALCFY, the protein stability index was 0.441 ± 0.018. LFLSFLLFVLAF showed a protein stability index of 0.319 ± 0.029. In the case of LFLSIFFFHLLF, the protein stability index is reported as 0.338 ± 0.041. Sequence LFPVFFPLFAPA has a protein stability index of 0.266 ± 0.034. With LFSCTQLLPITA the protein stability index was 0.173 ± 0.02. For LFSIFMSYRVYI, the protein stability index was 0.383 ± 0.07. In the case of LFSTRRWISVCA, the protein stability index is reported as 0.134 ± 0.035. LFSVLVFIYFVM was tested, and the protein stability index was 0.169 ± 0.034. LFTSGNSLVLVH showed a protein stability index of 0.236 ± 0.037. LFYVSFLFMLLF showed a protein stability index of 0.363 ± 0.036. LGALFGRFWWYF showed a protein stability index of 0.654 ± 0.01. LGCLVWGGVWGV showed a protein stability index of 0.625 ± 0.0078. In the case of LGFSHTRAIFFV, the protein stability index is reported as 0.605 ± 0.012. LGGCVSYINLLA was tested, and the protein stability index was 0.594 ± 0.022. LGRFHLACLLFL showed a protein stability index of 0.486 ± 0.028. For LGVLVVAFCGGC, the protein stability index was 0.354 ± 0.034.

— the supplement of paper PMC10724198
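Further: PSI is a weighted mean of sequencing reads over stability bins, variants kept only with over 10 reads, mCherry proximal and sfGFP distal, peptide attached via GGGS linker.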
